The values below come from patent US20190169308A1 (ALLIGATOR BIOSCIENCE, published 2019).

For experiment [1], the target named is T1, 5T4-Fc (human, UniProt Q13641 32-355, limits assumed).
T1 construct: obtained from Peter L. Stern, University of Manchester; also called h5T4-Fc; recombinant 5T4
T1 sequence (looked up): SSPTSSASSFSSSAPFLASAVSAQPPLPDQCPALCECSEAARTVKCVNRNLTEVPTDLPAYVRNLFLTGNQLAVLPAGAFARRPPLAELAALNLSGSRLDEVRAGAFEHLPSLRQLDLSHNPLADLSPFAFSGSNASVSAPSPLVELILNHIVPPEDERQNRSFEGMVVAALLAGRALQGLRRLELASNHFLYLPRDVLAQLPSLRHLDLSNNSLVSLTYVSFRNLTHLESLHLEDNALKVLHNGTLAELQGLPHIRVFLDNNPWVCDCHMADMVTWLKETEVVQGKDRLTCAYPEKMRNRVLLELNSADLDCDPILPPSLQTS
Nature of the experiment: dual ELISA: coated 5T4-Fc, detection with CD137-bio. On the procedure:
Bispecific binding to both targets, CD137 and 5T4, was evaluated using a standard ELISA protocol. Plates (#655074, Greiner Bio-One GmbH, Germany) were pre-coated with 0.5 μg/ml 5T4-Fc (obtained from Professor Peter Stern, University of Manchester) overnight. CD137-5T4 bsAb were diluted from 8 to 2×10⁻³ μg/ml in 1:4 dilutions and added in duplicates of 50 μl to each well. CD137-bio (Ancell #502-030) was used as detection antibody at 0.5 μg/ml and the binding was detected with Streptavidin-HRP (Pierce #21126). The ELISA was developed with SuperSignal ELISA PICO Chemiluminescent substrate (Thermo Scientific Pierce, Rockford, Ill. USA) during 2-10 minutes and read in an automated microplate based multi-detection reader (FLUOstar OPTIMA, Netherlands).

For experiment [2], the target named is T1, 5T4-Fc. Nature of the experiment: ELISA, coated 5T4-Fc. On the procedure: ELISA was performed using a standard protocol. Plates (#655074, Greiner Bio-One GmbH, Germany) were pre-coated with 0.5 μg/ml 5T4-Fc (obtained from Peter L. Stern, University of Manchester) overnight. 5T4 antibodies were diluted from 6 to 1.5×10⁻³ μg/ml in 1:4 dilutions and added in duplicates of 50 μl to each well. Binding was detected with rabbit anti-h kappa L-chain-HRP (P0129, Dako Denmark) and the ELISA was developed with SuperSignal ELISA PICO Chemiluminescent substrate (Thermo Scientific Pierce, Rockford, Ill. USA) for 2-10 minutes and read in an automated microplate based multi-detection reader (FLUOstar OPTIMA, Netherlands).
(In general: ELISA stands for enzyme-linked immunosorbent assay.)

Experiment [3] concerns the target T2, mouse 5T4 on transfected cells (mouse, UniProt Q9Z0L0 32-426).
T2 construct: whole, on cells; also called murine 5T4
T2 sequence (looked up): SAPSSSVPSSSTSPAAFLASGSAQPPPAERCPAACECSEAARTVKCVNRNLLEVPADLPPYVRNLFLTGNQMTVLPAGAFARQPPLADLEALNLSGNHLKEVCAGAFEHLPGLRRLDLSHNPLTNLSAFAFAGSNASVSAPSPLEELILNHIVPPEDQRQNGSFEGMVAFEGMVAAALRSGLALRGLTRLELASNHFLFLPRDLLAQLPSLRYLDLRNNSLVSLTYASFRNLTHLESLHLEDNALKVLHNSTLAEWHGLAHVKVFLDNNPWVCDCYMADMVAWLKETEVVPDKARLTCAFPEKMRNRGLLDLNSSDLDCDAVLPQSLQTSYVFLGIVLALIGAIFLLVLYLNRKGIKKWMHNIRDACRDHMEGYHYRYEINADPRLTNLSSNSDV
Nature of the experiment: flow cytometry, mouse 5T4-transfected cells. A general note: Flow cytometry measures light scatter and fluorescence of single cells or particles in a stream.

Experiment [4] deals with T3, human 5T4 on transfected cells (human, UniProt Q13641 32-420).
T3 construct: whole, on cells; also called B16-5T4; CHOh5T4
T3 sequence (looked up): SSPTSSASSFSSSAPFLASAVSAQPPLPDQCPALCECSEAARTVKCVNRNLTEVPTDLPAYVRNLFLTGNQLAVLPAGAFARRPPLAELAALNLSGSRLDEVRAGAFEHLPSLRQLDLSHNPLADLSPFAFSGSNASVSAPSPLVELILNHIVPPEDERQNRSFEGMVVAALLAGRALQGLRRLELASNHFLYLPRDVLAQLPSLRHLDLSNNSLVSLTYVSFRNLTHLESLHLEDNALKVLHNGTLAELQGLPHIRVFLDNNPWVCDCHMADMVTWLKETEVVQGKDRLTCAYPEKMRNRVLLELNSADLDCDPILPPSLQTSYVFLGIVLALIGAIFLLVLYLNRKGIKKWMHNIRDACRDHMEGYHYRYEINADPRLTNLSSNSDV
As to the kind of experiment: flow cytometry, 5T4-transfected B16 cells.

The target in experiment [5] is T4, cynomolgus 5T4 on transfected CHO cells (Macaca mulatta (cynomolgus), UniProt F7CT46 35-420).
T4 construct: also called cyno5T4; cy5T4
T4 sequence: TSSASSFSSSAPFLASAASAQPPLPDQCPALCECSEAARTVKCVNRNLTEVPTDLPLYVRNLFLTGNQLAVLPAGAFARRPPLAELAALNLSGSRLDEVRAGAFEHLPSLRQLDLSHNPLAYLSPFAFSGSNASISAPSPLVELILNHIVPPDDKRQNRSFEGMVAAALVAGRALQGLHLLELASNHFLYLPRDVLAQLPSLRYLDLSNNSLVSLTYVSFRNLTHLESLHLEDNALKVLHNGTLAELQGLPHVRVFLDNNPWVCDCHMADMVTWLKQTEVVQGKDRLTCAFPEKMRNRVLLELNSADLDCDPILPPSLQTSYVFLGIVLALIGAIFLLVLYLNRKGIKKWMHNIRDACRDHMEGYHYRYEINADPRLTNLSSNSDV
As to the kind of experiment: flow cytometry, 5T4-transfected CHO cells. On the procedure: (§1) The potency of 5T4 antibodies in binding to cynomolgus 5T4 was determined by flow cytometry. CHO cells were stably transfected with […] (cynomolgus) 5T4. […] Samples were analysed either on a FACSCalibur or a FACSverse (BD Biosciences, Heidelberg, Germany) and mean fluorescence intensity (MFI) determined. […] To compare the EC50 values between human and cynomolgus 5T4, the cy5T4/hu5T4 ratio was calculated from the experiment with the full dose-response.

For experiment [6], the target named is T5, human/mouse 5T4 chimera E1.
T5 construct: on transfected CHO cells
Nature of the experiment: flow cytometry, cells with human/mouse 5T4 chimera. The procedure:
(§2) Epitope mapping was performed by investigation of loss of binding by the antibodies using a panel of human/mouse chimeric 5T4 constructs by flow cytometry. […] Two strategies were used for the epitope mapping as illustrated in FIG. 5. In one approach, seven human/mouse 5T4 chimeras were constructed based on dividing 5T4 into seven different domains (FIG. 5). By replacing each domain with the corresponding mouse sequence seven human/mouse 7 5T4 human/mouse chimeras were generated. The chimeras were generated using the human protein 5T4 sequence NP_006661.1 (reference mRNA sequence NM_006670.4) and the corresponding mouse sequence NP_035757.2 (reference mRNA sequence NM_011627.4). The human/mouse chimeric DNA constructs, as well as human and mouse wild-type 5T4, were cloned into pcDNA3.1 expression vectors. […] As controls human 5T4 and mouse 5T4-transfected cells were used. For flow cytometric analysis, cells were stained with different 5T4 antibodies diluted in FACS buffer (PBS, 0.5% BSA). […] Samples were analysed by FACSverse (BD Biosciences, Heidelberg, Germany) and % positive cells were determined. To compensate for variations in % 5T4 positive cells in the various transfected populations, binding levels were normalized within each chimera by dividing % positive cells for each clone with % positive cells for the clones resulting in the highest % positive cells (% pos cellscloneX/% positive cellsₘₐₓ). A normalized value ≤0.75 was defined as mAb binding being dependent on the replaced region, whereas a normalized value ≤0.25 was defined as complete dependence.

Experiment [7] has as its target T6, human/mouse 5T4 chimera E2.
T6 construct: on transfected CHO cells
Nature of the experiment: flow cytometry, cells with human/mouse 5T4 chimera. On the procedure: as §2

The target of experiment [8] is T7, human/mouse 5T4 chimera E3.
T7 construct: on transfected CHO cells
As to the kind of experiment: flow cytometry, cells with human/mouse 5T4 chimera. The procedure:
as §2

The target of experiment [9] is T8, human/mouse 5T4 chimera E4.
T8 construct: on transfected CHO cells
Nature of the experiment: flow cytometry, cells with human/mouse 5T4 chimera. On the procedure: as §2

Experiment [10] deals with T9, human/mouse 5T4 chimera E5.
T9 construct: on transfected CHO cells
As to the kind of experiment: flow cytometry, cells with human/mouse 5T4 chimera. The procedure:
as §2

Experiment [11] concerns the target T10, human/mouse 5T4 chimera E6.
T10 construct: on transfected CHO cells
Nature of the experiment: flow cytometry, cells with human/mouse 5T4 chimera. On the procedure:
as §2

For experiment [12], the target named is T11, human/mouse 5T4 chimera E7.
T11 construct: on transfected CHO cells
As to the kind of experiment: flow cytometry, cells with human/mouse 5T4 chimera. On the procedure: as §2

For experiment [13], the target named is T4, cynomolgus 5T4 on transfected CHO cells. Nature of the experiment: flow cytometry, cynomolgus 5T4-transfected CHO cells. The procedure:
as §1

In experiment [14] the target is T12, 5T4 (SPR antigen) (UniProt Q13641 32-355, limits assumed, biotinylated on the MASS-1 platform).
T12 construct: also called biotinylated 5T4
T12 sequence (looked up): T1 sequence (looked up)
Nature of the experiment: SPR Biacore 3000, amine-coupled 5T4, mAb injected (bivalent). On the procedure: Binding kinetics of the 5T4-specific mAbs have been studied using two different SPR-based platforms, the Biacore 3000 (GE Healthcare) and the MASS-1 platform (Sierra Sensors). Briefly, 5T4 was captured at the sensor chip surface either via direct amine coupling (Biacore platform) or using a streptavidin coated chip and biotinylated 5T4 (MASS-1 platform). The different 5T4-specific mAbs were then injected over the chip in increasing concentrations and the association and dissociation rates studied in real time. A 1:1 Langmuir model was used for curve fitting.
For orientation: Surface plasmon resonance follows binding to a sensor surface in real time, without labels.

B1: 1626-1208 (bispecific antibody)
heavy: not shown
light: DIQMTQSPSSLSASVGDRVTITCRASQSISSYLNWYQQKPGKAPKLLIYAASSLQSGVPSRFSGSGSGTDFTLTISSLQPEDFATYYCQQGTGYGPLTFGQGTKLEIKRTVAAPSVFIFPPSDEQLKSGTASVVCLLNNFYPREAKVQWKVDNALQSGNSQESVTEQDSKDSTYSLSSTLTLSKADYEKHKVYACEVTHQGLSSPVTKSFNRGEC
notes: Morrison format IgG-scFv
As for B1, the response in experiment [1] was half-maximal at 1.91 nM (EC50).

B2: 1626-1210 (bispecific antibody)
heavy: not shown
light: B1 light
notes: Morrison format IgG-scFv
In the case of B2, the concentration for a half-maximal effect (EC50) in [1] worked out at 0.4 nM.

B3: 1212/1213 (antibody, V domains shown)
VH: EVQLLESGGGLVQPGGSLRLSCAASGFTFSSYAMSWVRQAPGKGLEWVSYISSYGGYTSYADSVKGRFTISRDNSKNTLYLQMNSLRAEDTAVYYCARYHSGVLDYWGQGTLVTVSS
VL: DIQMTQSPSSLSASVGDRVTITCRASQSISSYLNWYQQKPGKAPKLLIYAASSLQSGVPSRFSGSGSGTDFTLTISSLQPEDFATYYCQQYYYHYLLTFGQGTKLEIK
With B3, the 50% effective concentration (EC50) is 0.56 nM in [2], 1.4 nM in experiment [4] and 30.7 nM in experiment [13]. In [3], the binding result is given as “no binding”. Besides, the “Ratio EC50cyno5T4/h5T4” value in [5] is 140. Moreover, the “normalized % positive cells” value came out at 0.89 in [6]; 0.9 in experiment [7]; 0.93 in [8]; 1 in experiment [9]; 0.84 in experiment [10]; 0.03 in experiment [11]. The “normalized % positive cells” value in experiment [12] worked out at 0.88. Moreover, the association rate constant (kon) in experiment [14] was determined as 450000 M⁻¹ s⁻¹.

In general, EC50 refers to the concentration at which the effect is half-maximal. Low values mean higher potency in that assay, high ones lower potency in that assay. The kon is a measure of how fast the partners come together. Low values mean slow association, high ones fast association.
